Results on 2 sequences are retold here after paper PMC9952706.

The data set concerns the target T1, AdpA (His-tagged) (Streptomyces coelicolor M145) (UniProt Q9L062).
T1 sequence: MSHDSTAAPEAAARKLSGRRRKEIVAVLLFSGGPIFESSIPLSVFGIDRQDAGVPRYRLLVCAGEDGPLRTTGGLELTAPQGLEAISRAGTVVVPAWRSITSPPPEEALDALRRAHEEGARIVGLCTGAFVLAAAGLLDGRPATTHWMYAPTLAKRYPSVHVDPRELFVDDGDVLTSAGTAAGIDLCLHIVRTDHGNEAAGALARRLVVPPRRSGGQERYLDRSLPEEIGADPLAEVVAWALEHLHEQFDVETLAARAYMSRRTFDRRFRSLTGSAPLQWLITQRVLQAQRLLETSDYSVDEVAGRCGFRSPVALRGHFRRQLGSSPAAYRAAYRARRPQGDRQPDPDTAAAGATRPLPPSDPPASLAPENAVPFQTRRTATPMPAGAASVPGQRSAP
As to the kind of experiment: EMSA. The conditions noted are these: EMSA: 20 mM Tris-HCl pH 8.0, 2 mM EDTA, 20 mM KCl, 0.5 mM DTT, 4% Ficoll-400, 2 µg poly(dI-dC), room temperature, 25 min; 20 nM probe.

As to “GCGGCAGATCAGGACCCTCCAGGACTTCGGGTTCGACCTGGAGGAGACCCGCCCCTTCGTGGAGTGCCTGCGCGCCGGGCACCCGGAGGGCGACTCCTGTCCGGCGTCCCTCGTGGTCTACCGGCGCAAGCTGGCCGAGCTGGACACGCTGATCGAGCAGCTCACGTCGGTGCGCGCGCAGGTCGCCGCACAGCTGACGCGGGCCGAGGCGGCGGCTCCGGGGGGTCCGGAGCCCAAGTGCGAACTGGGAGGACACGGATGAAGACCAGCGGGGTGCCCGAGGTGACGGACGCGGACTT (double strand) [trxA2 (sco5438) promoter probe]”, the binding entry is “binds”.

“TCATGGGCGCGCGTCCTGCGCACGCCGCCGGTTCGGTACTCCGAAGGTGCAGCGTCCGCGGAGCCGCGGAGATTCCCGCCCACCGTCGCATTTCGGCCACGCGAGGGCCCGGCGAGTGATGAGGATCTCGCCGCACACGGGCACCAAGGCTGGTA (double strand) [trxA5 (sco1084) promoter probe]”: the binding entry was “binds”.
